PMC6306002

Tested on: T1, OhsR-SSM (S-mycothiolated OhsR) (Corynebacterium glutamicum), ORF:a3d30e29
T1 sequence: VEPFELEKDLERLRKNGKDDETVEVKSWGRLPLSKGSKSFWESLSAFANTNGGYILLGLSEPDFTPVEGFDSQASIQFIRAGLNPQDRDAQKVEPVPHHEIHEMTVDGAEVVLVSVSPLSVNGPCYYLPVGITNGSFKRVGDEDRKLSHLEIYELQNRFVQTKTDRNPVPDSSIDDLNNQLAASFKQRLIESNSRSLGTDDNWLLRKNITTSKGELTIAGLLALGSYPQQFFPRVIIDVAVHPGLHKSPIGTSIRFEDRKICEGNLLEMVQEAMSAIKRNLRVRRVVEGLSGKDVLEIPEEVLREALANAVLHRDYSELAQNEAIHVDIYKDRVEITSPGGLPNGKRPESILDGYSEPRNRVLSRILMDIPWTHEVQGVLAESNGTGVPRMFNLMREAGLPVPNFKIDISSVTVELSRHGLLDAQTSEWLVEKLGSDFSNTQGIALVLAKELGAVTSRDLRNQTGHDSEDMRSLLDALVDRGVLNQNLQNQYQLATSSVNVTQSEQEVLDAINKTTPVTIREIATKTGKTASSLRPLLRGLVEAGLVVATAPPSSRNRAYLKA
Test: EMSA
Details: EMSA: 20 mM Tris-HCl pH 7.4, 4 mM MgCl2, 100 mM NaCl, 10% glycerol, room temperature 30 min; 20 ng DNA, 0-4 ug OhsR; 6% native PAGE, 0.5x TBE, SYBR Green

Sequence: CACCTTGTTGGTGGGCCGGGATTTTTGTTGTTTAGATTTTTGAAAGCACACTTTTGTCCCTTAACTAGTGCGTGTGTACATTCGACACCAAGATTTGGGCAATATGGTGCCCAAAATCAGGAAATCTTGCTGTCTAATGCACAACGGAAAACTGCTCACGGACGAACTAGTTGTAGCGAGCGTATTCTTTGTGTTCTCTC (double strand) [Pohr (ohr promoter, 200 bp)]
- binding: binds
